{"source": "the RNAGym collection of RNA variant scans (doi:10.1021/acssynbio.7b00057)", "parents": {"B1": {"name": "Pistol ribozyme (parent)", "chain": "GGGUCGUUGUUCCAUAAUCGCGUGGAUAUGGCACGCAAGUUUCUACCGGGCACCGUAAAUGUCCGACUGGAGCCGUUCGGGCGGCUAUAAACAGACCUCAGGCCCGAAGCGUGGCGGCACCUGCCGCCGGUGGUAAAAAAGAUCGGAAGAGCACACGUCU"}}}
{"variants_of": "B1", "experiment": "aptazyme ON/OFF ratio, guanine; higher = stronger switching; co-transcriptional cleavage with and without guanine"}
{"variant": "GGGUCGCUAAGAAAUAAUCGCGUGGAUAUGGCACGCAAGUUUCUACCGGGCACCGUAAAUGUCCGACUGGAGCCGUUCGGGCGGCUAUAAACAGACCUCAGGCCCGAAGCGUGGCGGCACCUGCCGCCGGUGGUAAAAAAGAUCGGAAGAGCACACGUCU", "note": "[U7C G9A U10A U11G C12A C13A]", "aptazyme ON/OFF ratio": 1.08}
{"variant": "GGGUCGCAGCCCGAUAAUCGCGUGGAUAUGGCACGCAAGUUUCUACCGGGCACCGUAAAUGUCCGACUGGAGCCGUUCGGGCGGCUAUAAACAGACCUCAGGCCCGAAGCGUGGCGGCACCUGCCGCCGGUGGUAAAAAAGAUCGGAAGAGCACACGUCU", "note": "[U7C U8A U10C U11C C13G]", "aptazyme ON/OFF ratio": 1.09}
{"variant": "GGGUCGUAGGUCUAUAAUCGCGUGGAUAUGGCACGCAAGUUUCUACCGGGCACCGUAAAUGUCCGACUGGAGCCGUUCGGGCGGCUAUAAACAGACCUCAGGCCCGAAGCGUGGCGGCACCUGCCGCCGGUGGUAAAAAAGAUCGGAAGAGCACACGUCU", "note": "[U8A U10G C13U]", "aptazyme ON/OFF ratio": 1.18}
{"variant": "GGGUCGGUACGUUAUAAUCGCGUGGAUAUGGCACGCAAGUUUCUACCGGGCACCGUAAAUGUCCGACUGGAGCCGUUCGGGCGGCUAUAAACAGACCUCAGGCCCGAAGCGUGGCGGCACCUGCCGCCGGUGGUAAAAAAGAUCGGAAGAGCACACGUCU", "note": "[U7G G9A U10C U11G C12U C13U]", "aptazyme ON/OFF ratio": 1.14}
{"variant": "GGGUCGCUGUAGCAUAAUCGCGUGGAUAUGGCACGCAAGUUUCUACCGGGCACCGUAAAUGUCCGACUGGAGCCGUUCGGGCGGCUAUAAACAGACCUCAGGCCCGAAGCGUGGCGGCACCUGCCGCCGGUGGUAAAAAAGAUCGGAAGAGCACACGUCU", "note": "[U7C U11A C12G]", "aptazyme ON/OFF ratio": 1.21}
{"variant": "GGGUCGCUACCGUAUAAUCGCGUGGAUAUGGCACGCAAGUUUCUACCGGGCACCGUAAAUGUCCGACUGGAGCCGUUCGGGCGGCUAUAAACAGACCUCAGGCCCGAAGCGUGGCGGCACCUGCCGCCGGUGGUAAAAAAGAUCGGAAGAGCACACGUCU", "note": "[U7C G9A U10C U11C C12G C13U]", "aptazyme ON/OFF ratio": 1.04}
{"variant": "GGGUCGCGACUUCAUAAUCGCGUGGAUAUGGCACGCAAGUUUCUACCGGGCACCGUAAAUGUCCGACUGGAGCCGUUCGGGCGGCUAUAAACAGACCUCAGGCCCGAAGCGUGGCGGCACCUGCCGCCGGUGGUAAAAAAGAUCGGAAGAGCACACGUCU", "note": "[U7C U8G G9A U10C C12U]", "aptazyme ON/OFF ratio": 2.39}
{"variant": "GGGUCGAUUGGCUAUAAUCGCGUGGAUAUGGCACGCAAGUUUCUACCGGGCACCGUAAAUGUCCGACUGGAGCCGUUCGGGCGGCUAUAAACAGACCUCAGGCCCGAAGCGUGGCGGCACCUGCCGCCGGUGGUAAAAAAGAUCGGAAGAGCACACGUCU", "note": "[U7A G9U U10G U11G C13U]", "aptazyme ON/OFF ratio": 1.11}
{"variant": "GGGUCGCAUGCGGAUAAUCGCGUGGAUAUGGCACGCAAGUUUCUACCGGGCACCGUAAAUGUCCGACUGGAGCCGUUCGGGCGGCUAUAAACAGACCUCAGGCCCGAAGCGUGGCGGCACCUGCCGCCGGUGGUAAAAAAGAUCGGAAGAGCACACGUCU", "note": "[U7C U8A G9U U10G U11C C12G C13G]", "aptazyme ON/OFF ratio": 1.23}
{"variant": "GGGUCGCUUUCUCAUAAUCGCGUGGAUAUGGCACGCAAGUUUCUACCGGGCACCGUAAAUGUCCGACUGGAGCCGUUCGGGCGGCUAUAAACAGACCUCAGGCCCGAAGCGUGGCGGCACCUGCCGCCGGUGGUAAAAAAGAUCGGAAGAGCACACGUCU", "note": "[U7C G9U U11C C12U]", "aptazyme ON/OFF ratio": 1.16}
{"variant": "GGGUCGCAAAACGAUAAUCGCGUGGAUAUGGCACGCAAGUUUCUACCGGGCACCGUAAAUGUCCGACUGGAGCCGUUCGGGCGGCUAUAAACAGACCUCAGGCCCGAAGCGUGGCGGCACCUGCCGCCGGUGGUAAAAAAGAUCGGAAGAGCACACGUCU", "note": "[U7C U8A G9A U10A U11A C13G]", "aptazyme ON/OFF ratio": 1.12}
{"variant": "GGGUCGCCUGGCUAUAAUCGCGUGGAUAUGGCACGCAAGUUUCUACCGGGCACCGUAAAUGUCCGACUGGAGCCGUUCGGGCGGCUAUAAACAGACCUCAGGCCCGAAGCGUGGCGGCACCUGCCGCCGGUGGUAAAAAAGAUCGGAAGAGCACACGUCU", "note": "[U7C U8C G9U U10G U11G C13U]", "aptazyme ON/OFF ratio": 1.08}
{"variant": "GGGUCGUUGACAAAUAAUCGCGUGGAUAUGGCACGCAAGUUUCUACCGGGCACCGUAAAUGUCCGACUGGAGCCGUUCGGGCGGCUAUAAACAGACCUCAGGCCCGAAGCGUGGCGGCACCUGCCGCCGGUGGUAAAAAAGAUCGGAAGAGCACACGUCU", "note": "[U10A U11C C12A C13A]", "aptazyme ON/OFF ratio": 1.17}
{"variant": "GGGUCGGAGGGGUAUAAUCGCGUGGAUAUGGCACGCAAGUUUCUACCGGGCACCGUAAAUGUCCGACUGGAGCCGUUCGGGCGGCUAUAAACAGACCUCAGGCCCGAAGCGUGGCGGCACCUGCCGCCGGUGGUAAAAAAGAUCGGAAGAGCACACGUCU", "note": "[U7G U8A U10G U11G C12G C13U]", "aptazyme ON/OFF ratio": 1.7}
{"variant": "GGGUCGUAUAGGGAUAAUCGCGUGGAUAUGGCACGCAAGUUUCUACCGGGCACCGUAAAUGUCCGACUGGAGCCGUUCGGGCGGCUAUAAACAGACCUCAGGCCCGAAGCGUGGCGGCACCUGCCGCCGGUGGUAAAAAAGAUCGGAAGAGCACACGUCU", "note": "[U8A G9U U10A U11G C12G C13G]", "aptazyme ON/OFF ratio": 1.24}
{"variant": "GGGUCGCGACAAUAUAAUCGCGUGGAUAUGGCACGCAAGUUUCUACCGGGCACCGUAAAUGUCCGACUGGAGCCGUUCGGGCGGCUAUAAACAGACCUCAGGCCCGAAGCGUGGCGGCACCUGCCGCCGGUGGUAAAAAAGAUCGGAAGAGCACACGUCU", "note": "[U7C U8G G9A U10C U11A C12A C13U]", "aptazyme ON/OFF ratio": 1.07}
{"variant": "GGGUCGAUGACGUAUAAUCGCGUGGAUAUGGCACGCAAGUUUCUACCGGGCACCGUAAAUGUCCGACUGGAGCCGUUCGGGCGGCUAUAAACAGACCUCAGGCCCGAAGCGUGGCGGCACCUGCCGCCGGUGGUAAAAAAGAUCGGAAGAGCACACGUCU", "note": "[U7A U10A U11C C12G C13U]", "aptazyme ON/OFF ratio": 1.1}
{"variant": "GGGUCGCUAGGAAAUAAUCGCGUGGAUAUGGCACGCAAGUUUCUACCGGGCACCGUAAAUGUCCGACUGGAGCCGUUCGGGCGGCUAUAAACAGACCUCAGGCCCGAAGCGUGGCGGCACCUGCCGCCGGUGGUAAAAAAGAUCGGAAGAGCACACGUCU", "note": "[U7C G9A U10G U11G C12A C13A]", "aptazyme ON/OFF ratio": 1.17}
